Data taken from article PMC10070233 (Cellular and Molecular Life Sciences: CMLS, 2023).

Key:
Assay in all cases: BLI; kinetics: FGFRs-Fc (25 μg/mL) immobilised on Protein-A sensors, galectins 0.2-6 μM; heterogeneous ligand (2:1) model
Conditions in all cases: both partners purified
[1] = biological target: T1, extracellular region of FGFR1 fused to the Fc fragment of human IgG1 (human, UniProt P11362 22-376, N-glycosylated (eight N-glycosylation sites))
T1 construct: FGFR1, extracellular region with domains D1, D2 and D3; also called FGFR1-Fc; FGFR1.Fc; source: CHO cells, purified (Protein A Sepharose)
T1 sequence (looked up): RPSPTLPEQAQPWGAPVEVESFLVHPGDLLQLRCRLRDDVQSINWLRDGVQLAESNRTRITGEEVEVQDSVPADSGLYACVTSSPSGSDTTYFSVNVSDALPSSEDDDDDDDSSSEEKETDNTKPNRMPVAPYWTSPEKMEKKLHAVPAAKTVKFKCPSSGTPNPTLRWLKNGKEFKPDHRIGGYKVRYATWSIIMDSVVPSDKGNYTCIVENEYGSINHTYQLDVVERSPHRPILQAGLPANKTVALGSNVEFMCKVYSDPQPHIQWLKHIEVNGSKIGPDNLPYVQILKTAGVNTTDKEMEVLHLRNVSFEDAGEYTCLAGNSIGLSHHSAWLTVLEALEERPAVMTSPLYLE

[2] = biological target: T2, extracellular region of FGFR2 fused to the Fc fragment of human IgG1 (human, UniProt P21802 22-377, N-glycosylated (eight putative N-glycosylation sites))
T2 construct: FGFR2, extracellular region; also called FGFR2-Fc; source: CHO cells, purified (Protein A Sepharose)
T2 sequence (P21802 22-377): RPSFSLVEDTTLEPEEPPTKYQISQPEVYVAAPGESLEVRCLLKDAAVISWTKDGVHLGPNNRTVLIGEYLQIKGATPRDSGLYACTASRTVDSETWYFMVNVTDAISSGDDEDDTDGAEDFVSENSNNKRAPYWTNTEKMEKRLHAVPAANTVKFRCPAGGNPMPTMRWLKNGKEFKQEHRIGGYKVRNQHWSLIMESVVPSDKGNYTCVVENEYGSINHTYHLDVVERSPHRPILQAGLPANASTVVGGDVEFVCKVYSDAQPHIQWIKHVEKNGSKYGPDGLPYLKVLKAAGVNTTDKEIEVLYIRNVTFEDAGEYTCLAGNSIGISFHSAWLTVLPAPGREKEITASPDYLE

[3] = biological target: T3, extracellular region of FGFR4 fused to the Fc fragment of human IgG1 (human, UniProt P22455 22-369, N-glycosylated (five putative N-glycosylation sites))
T3 construct: FGFR4, extracellular region; also called FGFR4-Fc; source: CHO cells, purified (Protein A Sepharose)
T3 sequence (looked up): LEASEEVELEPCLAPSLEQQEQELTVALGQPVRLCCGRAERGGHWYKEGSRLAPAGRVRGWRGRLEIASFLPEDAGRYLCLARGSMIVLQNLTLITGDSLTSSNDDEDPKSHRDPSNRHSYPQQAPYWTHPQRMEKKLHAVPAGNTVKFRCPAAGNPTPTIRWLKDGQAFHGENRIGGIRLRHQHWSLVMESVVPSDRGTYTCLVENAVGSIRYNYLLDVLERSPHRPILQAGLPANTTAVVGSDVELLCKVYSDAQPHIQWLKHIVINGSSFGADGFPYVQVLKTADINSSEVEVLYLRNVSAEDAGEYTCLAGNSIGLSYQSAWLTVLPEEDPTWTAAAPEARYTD

[4] = biological target: T4, extracellular region of FGFR3 fused to the Fc fragment of human IgG1 (human, UniProt P22607 23-375, N-glycosylated (six putative N-glycosylation sites))
T4 construct: FGFR3, extracellular region; also called FGFR3-Fc; source: CHO cells, purified (Protein A Sepharose)
T4 sequence (looked up): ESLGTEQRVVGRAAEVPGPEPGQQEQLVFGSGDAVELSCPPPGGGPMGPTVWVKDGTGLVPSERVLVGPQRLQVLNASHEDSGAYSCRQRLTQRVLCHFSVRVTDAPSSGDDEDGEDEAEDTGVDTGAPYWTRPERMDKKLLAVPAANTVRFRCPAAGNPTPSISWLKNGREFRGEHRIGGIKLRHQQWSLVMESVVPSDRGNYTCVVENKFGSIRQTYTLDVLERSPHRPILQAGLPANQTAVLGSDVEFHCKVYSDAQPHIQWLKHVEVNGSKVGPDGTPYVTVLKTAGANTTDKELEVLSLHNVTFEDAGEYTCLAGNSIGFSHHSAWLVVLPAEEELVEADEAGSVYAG

B1: N-terminal carbohydrate recognition domain of galectin-8 fused to the AviTag (domain or fragment, human, UniProt O00214 1-152, looked up)
chain: MMLSLNNLQNIIYNPVIPFVGTIPDQLDPGTLIVIRGHVPSDADRFQVDLQNGSSMKPRADVAFHFNPRFKRAGCIVCNTLINEKWGREEITYDTPFKREKSFEIVIMVLKDKFQVAVNGKHTLLYGHRIGPEKIDTLGIYGKVNIHSIGFS
notes: galectin-8, human, N-CRD, residues Met1-Ser152; also called gal-8N-CRD; gal-8_(N-CRD); source: E. coli BL21(DE3) pLysS, purified (Ni-NTA); not shown: AviTag, C-terminal, kept
B1 gave a KD1 [1] of 2.6 µM, a KD2 [1] of 17 nM and a Koff1 [1] of 0.164 s⁻¹. The Koff2 [1] was 0.000194 s⁻¹, the Kon1 [1] was 165000 M⁻¹ s⁻¹ and the Kon2 [1] was 429000 M⁻¹ s⁻¹.

B2: galectin-8 (natural protein, human, UniProt O00214 1-317, looked up)
chain: MMLSLNNLQNIIYNPVIPFVGTIPDQLDPGTLIVIRGHVPSDADRFQVDLQNGSSMKPRADVAFHFNPRFKRAGCIVCNTLINEKWGREEITYDTPFKREKSFEIVIMVLKDKFQVAVNGKHTLLYGHRIGPEKIDTLGIYGKVNIHSIGFSFSSDLQSTQASSLELTEISRENVPKSGTPQLRLPFAARLNTPMGPGRTVVVKGEVNANAKSFNVDLLAGKSKDIALHLNPRLNIKAFVRNSFLQESWGEEERNITSFPFSPGMYFEMIIYCDVREFKVAVNGVHSLEYKHRFKELSSIDTLEINGDIHLLEVRSW
notes: galectin-8, human; the C-CRD construct ends at Trp317, which fits the form of 317 residues; also called gal-8; full-length galectin-8; source: E. coli BL21 CodonPlus(DE3)-RIL, purified (Ni-NTA); not shown: His tag, N-terminal, kept
B2 was tested, and the KD1 [2] was 3.8 µM, the KD2 [2] was 141 nM and the Koff1 [2] was 0.0312 s⁻¹. For the same binder, the Koff2 [2] was 0.00493 s⁻¹, the Kon1 [2] was 13200 M⁻¹ s⁻¹ and the Kon2 [2] was 35100 M⁻¹ s⁻¹. The KD1 [3] was 24.3 nM, the KD2 [3] was 249 nM and the Koff1 [3] was 0.000929 s⁻¹. The Koff2 [3] was 0.0161 s⁻¹, the Kon1 [3] was 38700 M⁻¹ s⁻¹ and the Kon2 [3] was 65100 M⁻¹ s⁻¹. For the same binder, the KD1 [4] was 174 nM, the KD2 [4] was 63 nM and the Koff1 [4] was 0.0289 s⁻¹. For the same binder, the Koff2 [4] was 0.000855 s⁻¹, the Kon1 [4] was 167000 M⁻¹ s⁻¹ and the Kon2 [4] was 14500 M⁻¹ s⁻¹. The KD1 [1] was 0.95 µM, the KD2 [1] was 194 nM and the Koff1 [1] was 0.0225 s⁻¹. It also gave a Koff2 [1] of 0.000766 s⁻¹, a Kon1 [1] of 25200 M⁻¹ s⁻¹ and a Kon2 [1] of 8820 M⁻¹ s⁻¹.
